Positions count from the first letter of the chain named. One block for each binder: values may come before it.
Key:
human IL-23 [1] = target: T1, human IL-23 (human, UniProt Q9NPF7 20-189; P29460 23-328); assay: cell-based or functional assay
T1 sequence (looked up) 1: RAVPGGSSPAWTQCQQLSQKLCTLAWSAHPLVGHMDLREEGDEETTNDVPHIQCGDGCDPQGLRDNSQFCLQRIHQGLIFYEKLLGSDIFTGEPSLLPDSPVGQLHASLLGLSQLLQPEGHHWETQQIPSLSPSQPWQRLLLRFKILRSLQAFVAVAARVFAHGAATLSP
T1 sequence (looked up) 2: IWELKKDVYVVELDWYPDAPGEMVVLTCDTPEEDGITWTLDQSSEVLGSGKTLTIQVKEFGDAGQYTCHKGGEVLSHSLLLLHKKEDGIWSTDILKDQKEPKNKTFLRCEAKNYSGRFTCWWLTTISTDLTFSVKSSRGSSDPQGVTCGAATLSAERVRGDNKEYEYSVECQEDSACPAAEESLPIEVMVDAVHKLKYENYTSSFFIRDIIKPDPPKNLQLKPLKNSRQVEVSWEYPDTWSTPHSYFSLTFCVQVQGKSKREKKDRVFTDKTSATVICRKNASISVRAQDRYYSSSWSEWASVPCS

human IL-23 [2] = target: T1, human IL-23; assay: SPR, Adnectin captured by anti-His mAb, IL-23 injected
Description: All surface plasmon experiments were conducted in HBS-EP (10 mM Hepes 150 mM NaCl 3 mM EDTA 0.05% Surfactant P20) at 25° C. IL-23 was injected over anti-His mAb captured Adnectins for 2 minutes followed by a 10 minute dissociation phase. Evaluation of the binding specificity was completed using Biacore T100 evaluation software. Additional detailed methods are described in Example 4.

human IL-23 [3] = target: T1, human IL-23; assay: cell-based or functional assay; remark: listed apart in the source

Kit 225 pSTAT3 IC50 (nM) (human IL-23 [1]): 4.9 nM
B1: 1434A08 (designed binder)
chain: MGVSDVPRDLEVVAATPTSLLISWGHYPMHVRYYRITYGETGGNSPVQEFTVPHRTHTATISGLKPGVDYTITVYAVTYYNEADYSQIPISINYRTEIDKPSQHHHHHH

Kit 225 pSTAT3 IC50 (nM) (human IL-23 [1]): 2.8 nM | kon (human IL-23 [2]): 57300 M⁻¹ s⁻¹
B2: 1572H08 (designed binder)
chain: B1 chain with M29L, H54S, T56K, H57Y
notes: captured by anti-His mAb

Kit 225 pSTAT3 IC50 (nM) (human IL-23 [1]): 8.6 nM
B3: 1438B02 (designed binder)
chain: B1 chain with H54R, R55K, H57Y

Kit 225 pSTAT3 IC50 (nM) (human IL-23 [1]): 10.8 nM
B4: 1438A09 (designed binder)
chain: B1 chain with H54R, R55S, T56R, H57Y

Kit 225 pSTAT3 IC50 (nM) (human IL-23 [1]): 11.4 nM
B5: 1438D01 (designed binder)
chain: B1 chain with H54N, T56A

Kit 225 pSTAT3 IC50 (nM) (human IL-23 [1]): 39.6 nM
B6: 1438E05 (designed binder)
chain: B1 chain with H54S, R55N, T56V

Kit 225 pSTAT3 IC50 (nM) (human IL-23 [1]): 1 nM | Kd (human IL-23 [2]): 1.1 nM | koff (human IL-23 [2]): 0.000133 s⁻¹ | kon (human IL-23 [2]): 117000 M⁻¹ s⁻¹
B7: 1550A07 (designed binder)
chain: B1 chain with H54V, R55P, T56R, H57Y, N81A, E82Q, A83E, D84N, S86K, Q87E
notes: captured by anti-His mAb

Kit 225 pSTAT3 IC50 (nM) (human IL-23 [1]): 4 nM | Kd (human IL-23 [2]): 2.9 nM | koff (human IL-23 [2]): 0.000294 s⁻¹ | kon (human IL-23 [2]): 103000 M⁻¹ s⁻¹
B8: 1572D04 (designed binder)
chain: B1 chain with H54P, T56R, H57Y, N81E, E82Q, A83P, D84I, S86A, Q87T
notes: captured by anti-His mAb

Kit 225 pSTAT3 IC50 (nM) (human IL-23 [1]): 0.4 nM | IL-17 EC50 (human IL-23 [3]): 1.8 nM | IL-22 EC50 (human IL-23 [3]): 2.9 nM | Kd (human IL-23 [2]): 2.1 nM | koff (human IL-23 [2]): 0.000322 s⁻¹ | kon (human IL-23 [2]): 156000 M⁻¹ s⁻¹
B9: 1490H05 (designed binder)
chain: B1 chain with M29L, H54M, T56Q, N81A, E82Q, A83E, D84N, S86K, Q87E
notes: captured by anti-His mAb

Kit 225 pSTAT3 IC50 (nM) (human IL-23 [1]): 3 nM | Kd (human IL-23 [2]): 4.9 nM | koff (human IL-23 [2]): 0.000425 s⁻¹ | kon (human IL-23 [2]): 86200 M⁻¹ s⁻¹
B10: 1486G03 (designed binder)
chain: B1 chain with H54S, T56Y, H57Y
notes: captured by anti-His mAb

Kd (human IL-23 [2]): 4.8 nM | koff (human IL-23 [2]): 0.000465 s⁻¹ | kon (human IL-23 [2]): 97300 M⁻¹ s⁻¹
B11: 1490 E02 (designed binder)
chain: B1 chain with H54R, R55T, T56Q, H57Y
notes: captured by anti-His mAb

Kit 225 pSTAT3 IC50 (nM) (human IL-23 [1]): 5.3 nM | Kd (human IL-23 [2]): 1.9 nM | koff (human IL-23 [2]): 0.000186 s⁻¹ | kon (human IL-23 [2]): 99500 M⁻¹ s⁻¹
B12: 1550 E03 (designed binder)
chain: B1 chain with M29L, V31I, H54R, R55M, T56R, N81S, A83E, D84L, S86K, Q87Y
notes: captured by anti-His mAb

Kit 225 pSTAT3 IC50 (nM) (human IL-23 [1]): 2 nM | Kd (human IL-23 [2]): 1.7 nM | koff (human IL-23 [2]): 0.00025 s⁻¹ | kon (human IL-23 [2]): 150000 M⁻¹ s⁻¹
B13: 1487D09 (designed binder)
chain: B1 chain with V31I, H54R, R55S, T56R
notes: captured by anti-His mAb

Kit 225 pSTAT3 IC50 (nM) (human IL-23 [1]): 0.4 nM | Kd (human IL-23 [2]): 1.7 nM | koff (human IL-23 [2]): 0.000332 s⁻¹ | kon (human IL-23 [2]): 197000 M⁻¹ s⁻¹
B14: 1490G02 (designed binder)
chain: B1 chain with H54P, T56Y, N81M, A83E, D84K, S86A, Q87V
notes: captured by anti-His mAb

Kd (human IL-23 [2]): 3.5 nM | koff (human IL-23 [2]): 0.000587 s⁻¹ | kon (human IL-23 [2]): 167000 M⁻¹ s⁻¹
B15: 1490H08 (designed binder)
chain: B1 chain with M29L, V31I, H54N, R55T, T56S
notes: captured by anti-His mAb

Kit 225 pSTAT3 IC50 (nM) (human IL-23 [1]): 3.7 nM | Kd (human IL-23 [2]): 2.4 nM | koff (human IL-23 [2]): 0.000382 s⁻¹ | kon (human IL-23 [2]): 161000 M⁻¹ s⁻¹
B16: 1487C03 (designed binder)
chain: B1 chain with M29L, V31I, H54K, R55Q, T56V, H57Y
notes: captured by anti-His mAb

Kit 225 pSTAT3 IC50 (nM) (human IL-23 [1]): 2 nM | Kd (human IL-23 [2]): 2.3 nM | koff (human IL-23 [2]): 0.000352 s⁻¹ | kon (human IL-23 [2]): 151000 M⁻¹ s⁻¹
B17: 1486D04 (designed binder)
chain: B1 chain with M29L, V31I, H54R, R55S
notes: captured by anti-His mAb

Kit 225 pSTAT3 IC50 (nM) (human IL-23 [1]): 16.8 nM | Kd (human IL-23 [2]): 2.1 nM | koff (human IL-23 [2]): 0.000135 s⁻¹ | kon (human IL-23 [2]): 65900 M⁻¹ s⁻¹
B18: 1550C05 (designed binder)
chain: B1 chain with H54P, T56R, H57Y
notes: captured by anti-His mAb

Source: patent US20130012436A1 (Bristol-Myers Squibb, published 2013)
